Experiments:
[1] = molecular target: mAbs 2A4, 8G9 and 7D8, told of as a group; test: competition ELISA, told for the three mAbs together
[2] = molecular target: mAbs 2A4, 8G9 and 7D8, told of as a group; test: competition ELISA, value told for the three mAbs together

fold greater IC50 than murine AEF in solution [1] [fold]	IC50 [2] [µg/mL]	Binder
6 to 44		human AA amyloid (renal AA amyloid extract or tissue deposits) (protein, UniProt P0DJI8 19-94, looked up) RSFFSFLGEAFDGARDMWRAYSDMREANYIGSDKYFHARGNYDAAKRGPGGAWAAEVITDARENIQRFFGHGAEDS
	20	murine AA amyloid (AA fibrils, amyloid enhancing factor extract or tissue deposits) (protein, mouse, UniProt P05367 20-94, looked up) GFFSFIGEAFQGAGDMWRAYTDMKEAGWKDGDKYFHARGNYDAAQRGPGGVWAAEKISDARESFQEFFGRGHEDT
